We go through one molecule from patent US20120244161A1 (published 2012).

The target in the experiment is T1, EpCAM on KatoIII cells (human, UniProt P16422 24-314).
T1 sequence (looked up): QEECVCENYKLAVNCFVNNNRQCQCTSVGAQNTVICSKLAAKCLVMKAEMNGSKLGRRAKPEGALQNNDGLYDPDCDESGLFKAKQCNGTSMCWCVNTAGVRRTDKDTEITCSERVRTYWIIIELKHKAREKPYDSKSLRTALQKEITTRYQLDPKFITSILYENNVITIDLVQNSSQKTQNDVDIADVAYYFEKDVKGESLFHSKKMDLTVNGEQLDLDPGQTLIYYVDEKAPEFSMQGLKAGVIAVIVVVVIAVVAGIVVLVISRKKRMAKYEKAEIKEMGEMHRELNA
The experiment is described as follows: cell-based or functional assay.

B1: EpCAMxCD3 bispecific single chain antibody MT110 (bispecific antibody)
chain: ELVMTQSPSSLTVTAGEKVTMSCKSSQSLLNSGNQKNYLTWYQQKPGQPPKLLIYWASTRESGVPDRFTGSGSGTDFTLTISSVQAEDLAVYYCQNDYSYPLTFGAGTKLEIKGGGGSGGGGSGGGGSEVQLLEQSGAELVRPGTSVKISCKASGYAFTNYWLGWVKQRPGHGLEWIGDIFPGSGNIHYNEKFKGKATLTADKSSSTAYMQLSSLTFEDSAVYFCARLRNWDEPMDYWGQGTTVTVSSGGGGSDVQLVQSGAEVKKPGASVKVSCKASGYTFTRYTMHWVRQAPGQGLEWIGYINPSRGYTNYADSVKGRFTITTDKSTSTAYMELSSLRSEDTATYYCARYYDDHYCLDYWGQGTTVTVSSGEGTSTGSGGSGGSGGADDIVLTQSPATLSLSPGERATLSCRASQSVSYMNWYQQKPGKAPKRWIYDTSKVASGVPARFSGSGSGTDYSLTINSLEAEDAATYYCQQWSSNPLTFGGGTKVEIK
As to B1, the “EC50 of CD25 upregulation on CD4+ T lymphocytes, human PBMC with 0.2% KatoIII cells, 40 h, flow cytometry” value stood at 3.5 ng/mL; the “EC50 of CD25 upregulation on CD4+ T lymphocytes, human PBMC with 2% KatoIII cells, 40 h, flow cytometry” value stood at 2.35 ng/mL; the “EC50 of CD25 upregulation on CD4+ T lymphocytes, human PBMC with 10% KatoIII cells, 40 h, flow cytometry” value is 0.8 ng/mL; the “EC50 of CD25 upregulation on CD8+ T lymphocytes, human PBMC with 0.2% KatoIII cells, 40 h, flow cytometry” value was 5.98 ng/mL. Also, the “EC50 of CD25 upregulation on CD8+ T lymphocytes, human PBMC with 2% KatoIII cells, 40 h, flow cytometry” value was 0.99 ng/mL and the “EC50 of CD25 upregulation on CD8+ T lymphocytes, human PBMC with 10% KatoIII cells, 40 h, flow cytometry” value was determined as 0.26 ng/mL.
